Laboratory results reported in patent US20230110188A1 (ARGENX IIP, published 2023).
Residue numbers refer to the chain shown, from its start.

T1: hMuSK delta 1-2-3 (Fz) (human, UniProt O15146)
T1 construct: truncated extracellular domain, captured by anti-FLAG
T1 sequence (truncated extracellular domain, looked up): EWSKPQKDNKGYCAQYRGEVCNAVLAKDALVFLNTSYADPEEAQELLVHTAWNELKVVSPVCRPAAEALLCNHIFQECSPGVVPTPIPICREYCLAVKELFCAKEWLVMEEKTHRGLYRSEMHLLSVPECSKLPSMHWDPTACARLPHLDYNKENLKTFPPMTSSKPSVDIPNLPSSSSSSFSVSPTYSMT

T2: hMuSK delta 1 (Ig2-3 Fz) (human, UniProt O15146)
T2 construct: truncated extracellular domain, captured by anti-FLAG
T2 sequence (truncated extracellular domain, looked up): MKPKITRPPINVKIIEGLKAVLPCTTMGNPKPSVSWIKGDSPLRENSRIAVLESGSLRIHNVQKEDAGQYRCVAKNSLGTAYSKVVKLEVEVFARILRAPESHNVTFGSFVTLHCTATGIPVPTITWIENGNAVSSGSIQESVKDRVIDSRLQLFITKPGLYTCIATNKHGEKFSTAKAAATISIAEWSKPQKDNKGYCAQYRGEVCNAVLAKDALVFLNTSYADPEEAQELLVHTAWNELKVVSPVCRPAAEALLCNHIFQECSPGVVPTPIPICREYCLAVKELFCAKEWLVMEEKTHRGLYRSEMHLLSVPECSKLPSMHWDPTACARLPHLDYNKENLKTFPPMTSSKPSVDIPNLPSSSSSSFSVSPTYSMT

T3: Mouse MuSK as it stands on mouse muscle (neuromuscular junctions, C2C12 myotubes) (mouse, UniProt Q61006 22-868)
T3 sequence (looked up): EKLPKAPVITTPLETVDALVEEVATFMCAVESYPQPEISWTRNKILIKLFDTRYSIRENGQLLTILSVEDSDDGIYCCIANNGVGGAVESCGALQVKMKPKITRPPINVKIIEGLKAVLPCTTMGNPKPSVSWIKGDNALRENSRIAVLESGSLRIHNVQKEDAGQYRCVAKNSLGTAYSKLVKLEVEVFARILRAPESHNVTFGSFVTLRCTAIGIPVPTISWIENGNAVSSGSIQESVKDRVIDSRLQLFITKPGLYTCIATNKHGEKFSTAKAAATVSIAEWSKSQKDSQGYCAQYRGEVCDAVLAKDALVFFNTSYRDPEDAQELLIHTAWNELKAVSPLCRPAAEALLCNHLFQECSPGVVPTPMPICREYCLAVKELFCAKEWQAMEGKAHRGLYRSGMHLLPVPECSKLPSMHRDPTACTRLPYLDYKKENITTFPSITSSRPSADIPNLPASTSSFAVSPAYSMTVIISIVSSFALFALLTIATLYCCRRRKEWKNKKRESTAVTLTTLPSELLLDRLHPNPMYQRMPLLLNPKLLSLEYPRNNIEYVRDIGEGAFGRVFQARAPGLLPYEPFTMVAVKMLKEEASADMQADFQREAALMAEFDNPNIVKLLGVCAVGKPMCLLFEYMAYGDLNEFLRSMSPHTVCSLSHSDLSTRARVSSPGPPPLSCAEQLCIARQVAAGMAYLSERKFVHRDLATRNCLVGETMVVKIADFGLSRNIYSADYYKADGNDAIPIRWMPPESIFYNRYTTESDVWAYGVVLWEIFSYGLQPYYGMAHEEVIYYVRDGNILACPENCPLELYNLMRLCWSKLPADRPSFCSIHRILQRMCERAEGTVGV

T4: Human MuSK (R&D Systems, cat. 10189-MK, histidine tag) (human, UniProt O15146 24-495)
T4 construct: Bought protein; also called human monomeric MuSK-6xhis; not shown: histidine tag (6xhis)
T4 sequence: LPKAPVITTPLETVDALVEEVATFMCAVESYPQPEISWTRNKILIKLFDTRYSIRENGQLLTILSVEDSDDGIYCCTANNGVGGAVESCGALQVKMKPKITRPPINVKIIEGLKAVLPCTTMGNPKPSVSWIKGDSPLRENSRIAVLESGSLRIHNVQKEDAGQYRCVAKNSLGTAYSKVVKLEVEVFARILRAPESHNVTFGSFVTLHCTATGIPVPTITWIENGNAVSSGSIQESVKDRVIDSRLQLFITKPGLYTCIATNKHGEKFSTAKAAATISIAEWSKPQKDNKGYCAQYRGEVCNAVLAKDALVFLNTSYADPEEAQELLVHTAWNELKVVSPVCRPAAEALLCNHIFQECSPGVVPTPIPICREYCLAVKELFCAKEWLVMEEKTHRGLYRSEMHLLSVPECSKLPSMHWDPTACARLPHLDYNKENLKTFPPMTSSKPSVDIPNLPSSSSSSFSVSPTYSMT

B1: 3D10a (antibody, human IgG1, kappa, L234A L235A, V domains shown)
VH: EVQLVESGGGLVKPGGSLRLSCAASGFTFSASTMAWVRQAPGKGLEWVSSVSGDSHHIYYADSLKGRFTISRDNAKNSLYLQMNSLRAEDTAVYYCARERLLRLGVGFDSWGQGTLVTVSS
VL: DIQMTQSPSSLSASVGDRVTITCRASQRISGFVNWYQQKPGKAPKLLIYAASTLQSGVPSRFSGSGSGTDFTLTISSLQPEDFATYYCQQSYSPLYTFGQGTKLEIKR
B2: 3F6c (antibody, human IgG1, kappa, L234A L235A, V domains shown)
VH: EVQLVESGGGLVKPGGSLRLSCAASGFTFSSYTMDWVRQAPGKGLEWVSSIGSNGDYIYYADSVRGRFTISRDNAKNSLYLQMNSLRAEDTAVYYCARGQLAVAGTHFDYWGQGTLVTVSS
VL: B1 VL with R28K, I29V, S30N, G31K, F32Y, Y96S
B3: 4D3 (antibody, human IgG1, kappa, L234A L235A, V domains shown)
VH: B1 VH with A31S, S32Y, A35T, V51I, G53S, D54G, S55G, H57Y, A61T, S110F
VL: B1 VL with R28S, F32Y, V33L, P94A
B4: 3D9b (antibody, human IgG1, kappa, L234A L235A, V domains shown)
VH: EVQLVESGGGLVKPGGSLRLSCAASGFTFSTYTMHWVRQAPGKGLEWVSSISSRSAYKYYADSVKGRFTISRDNAKNSLYLQMNSLRAEDTAVYYCARDFFQLGPPRFDSWGQGTLVTVSS
VL: B1 VL with G31S, V33L, A50G, T53N, L95S

Tests used:
hMuSK delta 1-2-3 (Fz) = target: T1, hMuSK delta 1-2-3 (Fz); assay: ELISA, hMuSK delta 1-2-3 (Fz) captured on anti-FLAG coat, antibody titrated, anti-human Fc HRP detection, OD450
Experimental: (§1) For binding to MuSK domains—An ELISA plate was coated with 0.5 μg/ml of anti-FLAG (M2 clone, Sigma Cat. F3165) and incubated overnight at 4° C. Next, the plate was washed with PBS and blocked with 1×PBS 1% casein for two hours at RT. After washing the plate, human monomeric MuSK FLAG streptavidin (batch 27-6-2019) and truncated MuSK variants (batch 3-9-2019) at 1 μg/ml in PBS where incubated for one hour at RT. After washing the plate, antibodies were diluted in blocking buffer and added to the plate. After a one hour incubation at RT, the plate was washed. Next, detecting antibody was added and incubated for one hour at RT (anti-human Fc HRP (1/5000) (clone 5A9, cat. No. Ab7499, ABCAM)) in blocking buffer. Lastly, the plate was washed with PBS and TMB was added and the reaction was stopped with 0.5 M H2SO4. OD 450 nm was determined by the Tecan Sunrise ELISA plate reader.
(§2) For the MuSK domain binding ELISA, binding of anti-MuSK antibodies to FLAG captured human monomeric MuSK and truncated variants was tested (FIG. 6). 3D9b, 3F6c, 3D10a, 4D3 and 3B5 bound only to full length MuSK, no binding was observed against the truncated MuSK variants. Therefore, we conclude that our antibodies bind to the Ig1 domain.

hMuSK delta 1 (Ig2-3 Fz) = target: T2, hMuSK delta 1 (Ig2-3 Fz); assay: ELISA, hMuSK delta 1 (Ig2-3 Fz) captured on anti-FLAG coat, antibody titrated, anti-human Fc HRP detection, OD450
Experimental: as §1, §2

[1] = target: T3, Mouse MuSK as it stands on mouse muscle …; assay: cell-based or functional assay
[2] = target: T4, Human MuSK (R&D Systems, cat. 10189-MK, …); assay: SPR (Biacore), pH 7.4 (summary table, repeats the average of Table 16)
Text: In order to study pH dependent binding of our antibodies to MuSK, the Biacore was used with the same setup as described in the paragraph entitled “Binding affinity for mouse, human and rhesus monkey recombinant MuSK in Biacore”. 6. […] For the other antibodies there is no real difference observed between pH 7.4 and 5.5.

Binder | binding result (hMuSK delta 1-2-3 (Fz)) | binding result (hMuSK delta 1 (Ig2-3 Fz)) | AChR clusters larger or equal to 15 µm (large clusters) compared to agrin; Exp 1, batch Argenx [1] | AChR clusters larger or equal to 15 µm (large clusters) compared to agrin; Exp 2, batch Argenx [1] | AChR clusters larger or equal to 15 µm (large clusters) compared to agrin; Exp 3, batch UPX [1] | koff [2]
B1 | no binding (tested: log(conc) 4.2 (about 16000 ng/ml)) | no binding (tested: log(conc) 4.2 (about 16000 ng/ml)) | 52 % of agrin | 73 % of agrin | 61 % of agrin | –
B2 | no binding (tested: log(conc) 4.2 (about 16000 ng/ml)) | no binding (tested: log(conc) 4.2 (about 16000 ng/ml)) | 56 % of agrin | 70 % of agrin | 57 % of agrin | 8e-05 s⁻¹
B3 | no binding (tested: log(conc) 4.2 (about 16000 ng/ml)) | no binding (tested: log(conc) 4.2 (about 16000 ng/ml)) | 84 % of agrin | 58 % of agrin | 59 % of agrin | 0.00014 s⁻¹
B4 | no binding (tested: log(conc) 4.2 (about 16000 ng/ml)) | no binding (tested: log(conc) 4.2 (about 16000 ng/ml)) | 80 % of agrin | 74 % of agrin | 70 % of agrin | 0.00012 s⁻¹
